Data from paper PMC8246471.

Target: PriA helicase (UniProt P17888 1-732)
Assay: ATPase DNA titration

Sequence of PriA helicase (P17888 whole entry): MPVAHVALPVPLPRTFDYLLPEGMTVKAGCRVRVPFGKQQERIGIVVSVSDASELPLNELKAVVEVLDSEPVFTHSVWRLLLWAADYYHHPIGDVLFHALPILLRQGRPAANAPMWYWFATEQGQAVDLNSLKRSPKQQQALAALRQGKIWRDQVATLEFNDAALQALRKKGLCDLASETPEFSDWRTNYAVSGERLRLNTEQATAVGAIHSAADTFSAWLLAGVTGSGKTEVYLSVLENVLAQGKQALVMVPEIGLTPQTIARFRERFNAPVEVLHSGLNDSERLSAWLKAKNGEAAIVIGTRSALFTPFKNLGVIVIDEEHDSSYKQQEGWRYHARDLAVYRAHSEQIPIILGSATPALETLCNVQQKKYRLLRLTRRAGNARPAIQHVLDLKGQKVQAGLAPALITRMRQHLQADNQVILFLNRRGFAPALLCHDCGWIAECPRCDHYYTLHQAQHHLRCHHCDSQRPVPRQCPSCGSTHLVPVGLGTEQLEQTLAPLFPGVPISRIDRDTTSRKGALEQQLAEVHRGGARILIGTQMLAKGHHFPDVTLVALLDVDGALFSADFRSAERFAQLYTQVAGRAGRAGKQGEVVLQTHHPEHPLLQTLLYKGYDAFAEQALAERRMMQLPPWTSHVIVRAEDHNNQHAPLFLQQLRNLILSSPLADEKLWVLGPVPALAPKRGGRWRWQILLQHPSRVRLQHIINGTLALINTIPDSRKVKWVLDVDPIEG

B1: Fork 1 (mixed)
DNA 1: CTAGAGACGCTGCCGAATTCTGGCTTGGATCTGATGCTGTCTAGAGGCCTCCACTATGAAATCGCTGCA
DNA 2: CCGGGCTGCAGAGCTCATAGATCGATAGTCTCTAGACAGCATCAGATCCAAGCCAGAATTCGGCAGCGTCT
apparent K (half saturation): 5.7 ± 0.7 nM
